The target in assay [1] is T1, recombinant human RAGE (plate coat of the competition ELISA of Example 1.4).
T1 construct: not shown: The carrier of the coated preparation, if it had one
The assay is described as follows: competition ELISA on plates coated with recombinant human RAGE (2 µg/mL); competitor: biotinylated hybridoma-derived 4E5 (4E5-biotin), streptavidin-HRP, OD 450 nm; the unit comes from the axis 'Log MAbs (M)'. The procedure:
(§1) The purified chimeric anti-human RAGE monoclonal antibodies were tested for their ability to bind human RAGE in a competition ELISA. […] Equal volumes (50 μL) of each recombinant chimeric anti-human RAGE monoclonal antibodies or hybridoma-derived anti-human RAGE monoclonal antibodies and each corresponding biotinylated hybridoma-derived anti-RAGE mAbs were mixed. 50 μL of this mixture was then added to ELISA plates pre-coated with recombinant human RAGE at 2 μg/mL and incubated for 1.5 hours at room temperature. Wells were washed three times with PBS+0.05% Tween-20. Streptavidin HRP (1 mg/mL) was diluted 1:16000 in PBST+10% Superblock; 50 µL/well was added and the plates incubated for 1 hour at room temperature. Plates were washed 3 times with PBS+0.05% Tween-20. 50 µL of TMB solution (Sigma, St Louis, Mo.) was added to each well and incubated for 10 minutes at room temperature. The reaction was stopped by addition of IN sulphuric acid. Plates were read spectrophotometrically at a wavelength of 450 nm.

The target of assay [2] is T2, hRAGE (1-331) / human sRAGE 1-331, V#400 (human, UniProt Q15109 23-331).
T2 construct: also called sRAGE [RAGE (1-331)]; RAGE (antigen of the Biacore runs)
T2 sequence (Q15109 23-331): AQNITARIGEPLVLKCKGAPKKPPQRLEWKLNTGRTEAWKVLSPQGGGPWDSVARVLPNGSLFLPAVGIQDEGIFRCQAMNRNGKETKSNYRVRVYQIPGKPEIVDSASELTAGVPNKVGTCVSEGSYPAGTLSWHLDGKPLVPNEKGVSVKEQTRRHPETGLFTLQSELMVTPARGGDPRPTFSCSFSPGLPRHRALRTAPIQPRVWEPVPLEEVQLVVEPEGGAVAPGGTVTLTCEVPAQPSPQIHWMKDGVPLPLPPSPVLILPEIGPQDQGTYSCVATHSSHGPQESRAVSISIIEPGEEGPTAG
The assay is described as follows: Biacore SPR, mAb captured via anti-mouse Fc, human sRAGE 1-331 (V#400) injected, concurrent experiment, 1:1 fit. From the text: Biacore 2000 and Biacore T100 instruments were used to measure anti-RAGE mAb binding kinetics. The assay format for mAb affinity analysis was Fc-based capture via immobilized anti-Fc antibodies. A standard amine coupling protocol was employed to immobilize Fc-specific IgG via primary amines to the carboxy-methyl (CM) dextran surface of CM5 sensorchips (Biacore). For the study of mouse anti-RAGE mAbs, anti-mouse Fc (Biacore, anti-mouse, BR-1005-14) was used as the immobilized capture reagent and for the study of humanized anti-RAGE mAbs, anti-human Fc (Pierce 31125) was used as the immobilized capture reagent. An automated protocol, available on the Biacore 2000 and Biacore T100, was used to immobilize 8000-10000 RU of capture reagent in all 4 flowcells of the sensorchip. Briefly, the CM-dextran surfaces were activated by freshly prepared 1:1 50 mM N-hydroxysuccinimide (NHS):200 mM 3-(N,N-dimethylamino) propyl-N-ethylcarbodiimide (EDC). Then the anti-Fc IgG capture reagent (20 ug/ml in 10 mM sodium acetate, pH4.5) was applied to the surface followed by deactivation of the surface and blocking of the residual reactive sites with 1M ethanolamine (pH 8.5).
Data were processed using either Biacore evaluation software or Scrubber 2.0 software (BioLogic Software). Briefly, the data were double referenced by first, subtracting the signal from the reference cell and second, by subtracting the signal from buffer-only injections. The double referenced data for the RAGE injection series were then fit globally to a 1:1 (Langmuir) binding model, which included a mass transfer term, to determine the binding kinetic rate constants, kₐ and kd, and the affinity, KD (kₐ=kₒₙ; kd=koff)

In assay [3] the target is T1, recombinant human RAGE (plate coat of …). Put plainly: competition ELISA on plates coated with recombinant human RAGE (2 µg/mL); competitor: biotinylated hybridoma-derived 7F9 (7F9-biotin), streptavidin-HRP, OD 450 nm; the unit comes from the axis 'Log MAbs (M)'. The method, then: as §1
On the technique in general: In an ELISA, binding on a coated surface is turned into a signal by an enzyme label.

The record followed here is patent US20170002075A1 (AbbVie / Abbott, published 2017).

T1 sequence (chain, as listed by the source limits assumed): as the sequence (Q15109 23-331) above

B1: anti-human RAGE monoclonal antibody 4E5 (murine, hybridoma-derived) (antibody, V domains shown)
VH: QVQLQQSGAELVRPGTSVKVSCKASGYAFNNYLIEWIKQRPGQGLEWIGVINPGSGGTNHNEKFKVKATLTADKSSSTAYIQLSSLTSDDSAVYFCARSAGTARARFAYWGQGTLVTVSA
VL: DIQMTQSPSSLSASLGERVSLTCRASQDIGSSLNWLQQEPDGTIKRLIYATSSLDSGVPKRFSGSRSGSDYSLTISSLESEDFVDYYCLQYASFPFTFGSGTKLEIKR
notes: also called mAb4E5; ML37-4E5
The EC50 is the concentration needed to bring the measured effect to its halfway point. Turning to B1, the EC50 in assay [1] was 244 nM.

B2: anti-human RAGE monoclonal antibody 11E6 (murine, hybridoma-derived) (antibody, V domains shown)
VH: QIQLVQSGPELKKPGETVKISCKASGYTFTNFGMNWVKQAPGKGLKWMGYINTNTGESIYSEEFKGRFAFSLETSASTAYLQINNLKNEDTATYFCARSRMVTAYGMDYWGQGTSVTVSS
VL: DIVMTQSQKFMSTSVGDRVSITCKASQNVGTAVAWYQQRPGQSPKLLIFSASNRYTGVPDRFTGSGSGTDFTLTLSNMQPEDLADYFCQQYSSYPLTFGVGTKLELKR
notes: also called mAb11E6; ML37-11E6
As a reminder, the Kd is the free concentration of one partner at which half of the binding sites on the other are occupied at equilibrium, for simple one-to-one binding. The koff is the rate constant with which the complex falls apart. A low value points to a long-lived complex. Broadly, the kon is a measure of how fast the partners come together. Low values mean slow association, high ones fast association. In assay [2], B2 showed a Kd of 0.068 nM, an off-rate constant (koff) of 0.0013 s⁻¹ and a kon of 1.8e+07 M⁻¹ s⁻¹.

B3: anti-human RAGE monoclonal antibody 7F9 (murine, hybridoma-derived) (antibody, V domains shown)
VH: EEKLEESGGGLVQLGGSMKISCVASGFTLSNYWMDWVRQSPEKGLEWIAEIRLKSNYYSTHYAESVKGRFSISRDDSKGSVSLQMDNLTAEDTGIYFCARNAYWYFDVWGTGTTVTVSS
VL: DIVMTQSHKFMSTSVGDRVSATCKASQDVGTSVAWYQQKLGQSPKLLIYWTSTRHTGVPDRFTGSGSGTDFTLTISNVQSEDLADYFCQQYNNYPLTFGDGTKLELKR
notes: also called mAb7F9; MAb 7F9
Regarding B3, the concentration for a half-maximal effect (EC50) in assay [3] was determined as 166 nM.
